Experimental data reported in patent US20100254896A1.

What follows are substances tested against αvβ3 receptors on M21 human melanoma cells (human) (UniProt P06756) (assay: cell-based or functional assay).
Sequence of UniProt P06756 (P06756 31-1048, chain 1 of 2): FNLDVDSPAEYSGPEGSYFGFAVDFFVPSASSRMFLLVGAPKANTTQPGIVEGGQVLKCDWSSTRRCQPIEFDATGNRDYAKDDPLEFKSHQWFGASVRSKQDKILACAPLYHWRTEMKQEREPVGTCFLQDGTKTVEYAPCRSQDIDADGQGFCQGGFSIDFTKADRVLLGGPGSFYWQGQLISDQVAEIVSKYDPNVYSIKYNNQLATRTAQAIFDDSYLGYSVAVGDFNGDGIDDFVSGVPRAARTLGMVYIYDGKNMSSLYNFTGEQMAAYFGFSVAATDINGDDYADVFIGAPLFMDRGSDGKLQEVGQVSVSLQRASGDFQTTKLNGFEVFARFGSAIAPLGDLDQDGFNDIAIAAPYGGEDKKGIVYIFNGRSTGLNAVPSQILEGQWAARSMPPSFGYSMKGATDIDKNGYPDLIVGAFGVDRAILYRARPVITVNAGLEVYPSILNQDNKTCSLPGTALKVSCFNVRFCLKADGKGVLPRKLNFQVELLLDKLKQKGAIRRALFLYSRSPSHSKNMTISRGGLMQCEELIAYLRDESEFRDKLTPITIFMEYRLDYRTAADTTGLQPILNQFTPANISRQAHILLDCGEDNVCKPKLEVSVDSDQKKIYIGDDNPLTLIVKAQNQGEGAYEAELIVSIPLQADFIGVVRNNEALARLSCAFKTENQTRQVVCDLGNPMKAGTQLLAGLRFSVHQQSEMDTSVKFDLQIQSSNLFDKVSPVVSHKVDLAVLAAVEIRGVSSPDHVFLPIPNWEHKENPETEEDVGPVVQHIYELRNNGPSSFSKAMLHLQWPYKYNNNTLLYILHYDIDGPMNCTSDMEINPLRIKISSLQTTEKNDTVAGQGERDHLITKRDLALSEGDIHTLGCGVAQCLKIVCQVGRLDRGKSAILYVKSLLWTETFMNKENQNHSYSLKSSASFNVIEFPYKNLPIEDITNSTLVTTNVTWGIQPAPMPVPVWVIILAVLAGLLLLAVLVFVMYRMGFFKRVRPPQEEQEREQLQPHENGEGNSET
Sequence of UniProt P06756 (P05106 27-788, chain 2 of 2, further chain): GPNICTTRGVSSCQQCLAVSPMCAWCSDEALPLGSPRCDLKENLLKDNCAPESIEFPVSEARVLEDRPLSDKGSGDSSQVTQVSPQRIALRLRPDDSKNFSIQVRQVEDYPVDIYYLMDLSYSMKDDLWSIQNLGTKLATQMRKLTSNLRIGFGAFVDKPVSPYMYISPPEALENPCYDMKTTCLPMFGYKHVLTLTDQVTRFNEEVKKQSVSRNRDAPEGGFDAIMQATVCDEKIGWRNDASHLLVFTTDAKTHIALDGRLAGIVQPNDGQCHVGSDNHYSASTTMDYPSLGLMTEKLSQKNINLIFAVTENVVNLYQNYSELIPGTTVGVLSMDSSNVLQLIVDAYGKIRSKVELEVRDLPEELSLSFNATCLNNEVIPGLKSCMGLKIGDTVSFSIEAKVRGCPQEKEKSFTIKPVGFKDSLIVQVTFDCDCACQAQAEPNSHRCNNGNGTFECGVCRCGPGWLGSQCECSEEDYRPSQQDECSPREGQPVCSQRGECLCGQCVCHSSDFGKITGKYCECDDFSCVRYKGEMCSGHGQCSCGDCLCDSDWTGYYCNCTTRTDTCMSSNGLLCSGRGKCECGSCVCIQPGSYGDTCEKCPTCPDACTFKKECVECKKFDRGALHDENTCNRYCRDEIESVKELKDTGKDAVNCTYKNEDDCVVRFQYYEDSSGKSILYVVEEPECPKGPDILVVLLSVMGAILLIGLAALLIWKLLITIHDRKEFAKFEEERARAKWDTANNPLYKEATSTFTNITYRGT

First: RGD (targeted null AAVP, Example 2) (peptide)
Second: RGDTNF-α (targeted TNF-α expressing AAVP) (peptide)
The phage internalization assay, pfu/µl of the first is lower: 14000 pfu/µl for the first, 21500 pfu/µl for the second.

Going from fd (non-targeted null AAVP) to “fdTNF-α (non-targeted TNF-α expressing AAVP)”, the phage internalization assay, pfu/µl rises from 300 pfu/µl to 600 pfu/µl.
